Data as given in US20240239894A1 (AstraZeneca / MedImmune, published 2024).
Positions count from the first letter of the chain named.

Tests used:
huB7-H2 = biological target: T1, huB7-H2 (human, UniProt O75144 19-258); experiment: ELISA, absorbance 450 nm, antigen human B7-H2 (ECD) F10H
T1 construct: Sourced antigen; construct not described; also called Human B7-H2
T1 sequence (looked up): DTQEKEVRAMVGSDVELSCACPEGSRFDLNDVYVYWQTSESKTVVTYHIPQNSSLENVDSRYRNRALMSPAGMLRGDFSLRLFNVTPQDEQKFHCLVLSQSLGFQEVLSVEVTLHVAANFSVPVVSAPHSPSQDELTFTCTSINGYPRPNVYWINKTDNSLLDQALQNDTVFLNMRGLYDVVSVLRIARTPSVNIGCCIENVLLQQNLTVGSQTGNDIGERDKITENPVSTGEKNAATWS

huBTN3A2 = biological target: T2, huBTN3A2 (human, UniProt P78410 30-248, limits assumed); experiment: ELISA, absorbance 450 nm, antigen human BTN3A2 GST
T2 construct: Sourced antigen; construct not described; also called Human BTN3A2
T2 sequence (P78410 30-248 limits assumed): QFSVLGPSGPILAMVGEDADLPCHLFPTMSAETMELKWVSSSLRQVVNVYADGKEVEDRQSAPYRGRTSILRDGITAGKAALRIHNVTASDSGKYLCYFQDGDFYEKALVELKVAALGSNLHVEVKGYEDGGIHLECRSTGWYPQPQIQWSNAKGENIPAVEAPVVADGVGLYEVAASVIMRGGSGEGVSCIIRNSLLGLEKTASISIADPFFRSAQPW

huHHLA2 = biological target: T3, huHHLA2 (human, UniProt Q9UM44 23-344); experiment: ELISA, absorbance 450 nm, antigen human HHLA2 GST
T3 construct: Sourced antigen; construct not described; also called Human HHLA2
T3 sequence (looked up): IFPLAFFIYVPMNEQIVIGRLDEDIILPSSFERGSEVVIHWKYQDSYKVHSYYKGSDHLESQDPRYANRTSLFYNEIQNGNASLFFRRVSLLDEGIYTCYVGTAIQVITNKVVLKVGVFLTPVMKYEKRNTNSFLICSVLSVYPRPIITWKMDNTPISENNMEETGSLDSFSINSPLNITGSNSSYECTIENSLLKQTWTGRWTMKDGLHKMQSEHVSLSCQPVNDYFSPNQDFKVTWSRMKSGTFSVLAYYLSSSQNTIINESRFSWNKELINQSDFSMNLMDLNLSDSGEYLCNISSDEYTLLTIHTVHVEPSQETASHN

[1] = biological target: T4, Cyno B7-H4-Fc (Cyno B7H4 ECD, FcTM_6His) (cynomolgus monkey); experiment: HTRF binding, murine IgG1
T4 construct: extracellular domain; also called cynomolgus B7-H4-Fc

[2] = biological target: T5, Murine B7-H4-Fc (Mouse B7H4 ECD, Fc_6His) (mouse, UniProt Q7TSP5 25-257); experiment: HTRF binding, murine IgG1
T5 construct: extracellular domain; also called mouse B7-H4-Fc; FcHis6 tagged murine B7-H4
T5 sequence (Q7TSP5 whole entry, looked up): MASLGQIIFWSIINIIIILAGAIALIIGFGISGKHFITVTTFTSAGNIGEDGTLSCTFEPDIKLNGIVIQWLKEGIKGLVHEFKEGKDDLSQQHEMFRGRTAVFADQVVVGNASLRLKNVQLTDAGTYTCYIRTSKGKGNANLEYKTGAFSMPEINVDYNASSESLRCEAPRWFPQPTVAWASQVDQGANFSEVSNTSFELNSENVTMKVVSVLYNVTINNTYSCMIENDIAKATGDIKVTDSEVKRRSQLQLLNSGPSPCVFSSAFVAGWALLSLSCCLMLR

[3] = biological target: T6, Human B7-H4 ECD-Flag-His10 (monomeric) (human, UniProt Q7Z7D3 25-259); experiment: ELISA, absorbance 450 nm; x axis of this panel printed as Antibody Conc (µg/ml)
T6 construct: Minimally biotinylated for KinExA; also called hB7H4-ECD-Flag-His10; B7-H4-FLAG
T6 sequence: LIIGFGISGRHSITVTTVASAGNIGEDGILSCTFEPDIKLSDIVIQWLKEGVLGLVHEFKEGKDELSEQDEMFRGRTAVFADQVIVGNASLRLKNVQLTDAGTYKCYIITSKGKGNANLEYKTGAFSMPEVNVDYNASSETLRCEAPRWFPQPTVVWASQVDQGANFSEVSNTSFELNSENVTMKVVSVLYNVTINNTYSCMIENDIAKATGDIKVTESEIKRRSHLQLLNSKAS

[4] = biological target: T7, Human B7-H4-Fc (Human B7H4 ECD, Fc_6His) (human); experiment: as above
T7 construct: also called FcHis6 tagged human B7-H4
T7 sequence (Q7Z7D3 whole entry, looked up): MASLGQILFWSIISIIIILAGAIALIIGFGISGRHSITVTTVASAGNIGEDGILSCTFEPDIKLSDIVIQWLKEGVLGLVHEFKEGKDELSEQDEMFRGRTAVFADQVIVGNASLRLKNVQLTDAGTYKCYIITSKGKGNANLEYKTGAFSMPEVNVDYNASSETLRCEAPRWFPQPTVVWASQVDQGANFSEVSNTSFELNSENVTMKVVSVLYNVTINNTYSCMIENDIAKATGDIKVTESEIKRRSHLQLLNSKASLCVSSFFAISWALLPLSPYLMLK

[5] = biological target: T7, Human B7-H4-Fc (Human B7H4 ECD, Fc_6His); experiment: HTRF binding, murine IgG1
huBTN2A1 = biological target: T8, huBTN2A1 (human, UniProt Q7KYR7 29-248, limits assumed); experiment: ELISA
T8 construct: Sourced antigen; construct not described; also called Human BTN2A1
T8 sequence (looked up): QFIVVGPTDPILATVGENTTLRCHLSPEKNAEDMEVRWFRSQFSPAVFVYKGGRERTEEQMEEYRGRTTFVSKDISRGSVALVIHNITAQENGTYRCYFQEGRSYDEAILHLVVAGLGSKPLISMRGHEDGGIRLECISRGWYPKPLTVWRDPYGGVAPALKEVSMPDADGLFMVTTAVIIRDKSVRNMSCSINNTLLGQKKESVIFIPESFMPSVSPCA

huBTNL3 = biological target: T9, huBTNL3 (human, UniProt Q6UXE8 18-237, limits assumed); experiment: ELISA
T9 construct: Sourced antigen; construct not described; also called Human BTNL3
T9 sequence (looked up): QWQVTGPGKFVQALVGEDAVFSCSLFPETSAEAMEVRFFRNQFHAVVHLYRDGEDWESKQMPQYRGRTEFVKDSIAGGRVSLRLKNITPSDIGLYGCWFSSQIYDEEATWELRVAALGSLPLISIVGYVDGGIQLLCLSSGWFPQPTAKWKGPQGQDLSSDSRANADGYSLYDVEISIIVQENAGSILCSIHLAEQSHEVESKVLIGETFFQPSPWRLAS

huB7-H3 = biological target: T10, huB7-H3 (human, UniProt Q5ZPR3 29-461, limits assumed); experiment: ELISA, absorbance 450 nm, antigen human B7-H3 (ECD) Fc
T10 construct: Sourced antigen; construct not described; also called Human B7-H3
T10 sequence (looked up): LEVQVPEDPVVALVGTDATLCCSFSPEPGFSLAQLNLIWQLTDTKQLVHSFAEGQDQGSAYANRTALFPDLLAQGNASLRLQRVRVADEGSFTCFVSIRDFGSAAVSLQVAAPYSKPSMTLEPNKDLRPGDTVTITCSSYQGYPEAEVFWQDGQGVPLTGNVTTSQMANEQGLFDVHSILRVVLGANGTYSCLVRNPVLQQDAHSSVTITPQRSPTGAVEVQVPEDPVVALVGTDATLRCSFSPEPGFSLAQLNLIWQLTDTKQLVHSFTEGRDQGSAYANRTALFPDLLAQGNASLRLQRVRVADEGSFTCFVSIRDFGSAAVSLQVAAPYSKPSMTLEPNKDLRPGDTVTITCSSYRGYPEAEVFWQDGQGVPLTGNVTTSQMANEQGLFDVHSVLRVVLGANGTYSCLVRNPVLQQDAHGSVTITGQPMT

huB7-H1 = biological target: T11, huB7-H1 (human, UniProt Q9NZQ7 19-238); experiment: ELISA, absorbance 450 nm, antigen human B7-H1(ECD) F10H
T11 construct: Sourced antigen; construct not described; also called Human B7-H1
T11 sequence (Q9NZQ7 19-238 limits assumed): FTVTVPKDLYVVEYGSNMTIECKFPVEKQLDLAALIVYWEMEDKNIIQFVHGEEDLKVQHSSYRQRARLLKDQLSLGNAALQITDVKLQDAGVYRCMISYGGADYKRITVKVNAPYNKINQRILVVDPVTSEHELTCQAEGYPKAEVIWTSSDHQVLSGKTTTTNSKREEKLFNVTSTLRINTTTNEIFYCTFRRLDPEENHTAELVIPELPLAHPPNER

huBTN1A1 = biological target: T12, huBTN1A1 (human, UniProt Q13410 27-242, limits assumed); experiment: ELISA, absorbance 450 nm, antigen human BTN1A1 GST
T12 construct: Sourced antigen; construct not described; also called Human BTN1A1
T12 sequence (looked up): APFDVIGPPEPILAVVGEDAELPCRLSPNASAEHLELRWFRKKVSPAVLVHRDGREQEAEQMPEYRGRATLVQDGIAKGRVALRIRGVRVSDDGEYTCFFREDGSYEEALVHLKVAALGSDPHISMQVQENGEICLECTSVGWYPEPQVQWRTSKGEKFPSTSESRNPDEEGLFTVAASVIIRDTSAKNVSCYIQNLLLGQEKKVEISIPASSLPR

[6] = biological target: T6, Human B7-H4 ECD-Flag-His10 (monomeric); experiment: ELISA, absorbance 450 nm; x axis printed as antigen concentration (µg/ml)
[7] = biological target: T7, Human B7-H4-Fc (Human B7H4 ECD, Fc_6His); experiment: as above
[8] = biological target: T4, Cyno B7-H4-Fc (Cyno B7H4 ECD, FcTM_6His); experiment: ELISA, absorbance 450 nm, Cyno B7H4 (ECD) Fc TM 6H; x axis printed as antigen concentration (nM)
[9] = biological target: T13, Human B7H4 (ECD) Fc TM 6H (human, UniProt Q7Z7D3); experiment: ELISA, absorbance 450 nm, Human B7H4 (ECD) Fc TM 6H; x axis printed as antigen concentration (nM)
T13 construct: ECD, native leader
T13 sequence (Q7Z7D3 whole entry, looked up): T7 sequence (Q7Z7D3 whole entry, looked up)

[10] = biological target: T7, Human B7-H4-Fc (Human B7H4 ECD, Fc_6His); experiment: ELISA on coated human B7H4/Fc, absorbance 450 nm, [IgG] 0.006 to 100 nM

B1: ZY0EPQ-E02 murine IgG1 (antibody, V domains shown)
VH: QVQLQQWGAGLLKPSETLSLTCAVYGGSFSGYYWNWIRQPPGKGLEWIGEINHSGSTNYNPSLKSRVTILVDTSKNQFSLKLSSVTAADTAVYYCARNLYNWNLDSWGQGTLVTVSS
VL: DIQMTQSPSSLSASVGDRVTITCRASQGIRNDLGWYQQKPGRAPKRLIYVASSLQSGVPSRFSGSGSGTEFTLTISSLQPEDFATYYCLQHNSYPRTFGQGTKVEIK
binding result (huB7-H2): no binding (tested: 10 µg/ml (antigen))
binding result (huBTN3A2): no binding (tested: about 10 µg/ml (antigen))
binding result (huHHLA2): no binding (tested: about 10 µg/ml (antigen))
EC50 [1]: 0.38 nM
Max [1]: 2240
EC50 [2]: 2.03 nM
Max [2]: 790
EC50 (read off the curve) [3]: ~0.2 µg/mL
EC50 (read off the curve) [4]: ~0.2 µg/mL
EC50 [5]: 0.38 nM
Max [5]: 2740
binding result (huBTN2A1): no binding
binding result (huBTNL3): no binding
binding result (huB7-H3): no binding
binding result (huB7-H1): no binding (tested: 10 µg/ml (antigen))
binding result (huBTN1A1): no binding (tested: 10 µg/ml (antigen))

B2: ZY0EQD-E02 murine IgG1 (antibody, V domains shown)
VH: B1 VH with N58S, L70S, N98V, L104V
VL: B1 VL with G28D, L33V, R42K, V50A, S53R
binding result (huB7-H2): no binding (tested: 10 µg/ml (antigen))
binding result (huBTN3A2): no binding (tested: about 10 µg/ml (antigen))
binding result (huHHLA2): no binding (tested: about 10 µg/ml (antigen))
EC50 [1]: 0.22 nM
Max [1]: 2490
EC50 (read off the curve) [6]: ~0.04 µg/mL
EC50 (read off the curve) [7]: ~0.03 µg/mL
EC50 [2]: 3.64 nM
Max [2]: 447
EC50 [5]: 0.22 nM
Max [5]: 3170
binding result (huBTN2A1): no binding
binding result (huBTNL3): no binding
binding result (huB7-H3): no binding
binding result (huB7-H1): no binding (tested: 10 µg/ml (antigen))
binding result (huBTN1A1): no binding (tested: 10 µg/ml (antigen))

B3: E02-GL-maia (antibody, human IgG1, kappa)
heavy: QVQLQQWGAGLLKPSETLSLACTVYGGSFSGYYWNWIRQPPGKGLEWIGEINHSGSTSYNPSLKSRVTISVDTSKNQFSLKLSSVTAADTAVYYCARVLYNWNVDSWGQGTLVTVSSASTKGPSVFPLAPSSKSTSGGTAALGCLVKDYFPEPVTVSWNSGALTSGVHTFPAVLQSSGLYSLSSVVTVPSSSLGTQTYICNVNHKPSNTKVDKRVEPKSCDKTHTCPPCPAPELLGGPSCVFLFPPKPKDTLMISRTPEVTCVVVDVSHEDPEVKFNWYVDGVEVHNAKTKPREEQYNSTYRVVSVLTVLHQDWLNGKEYKCKVSNKALPAPIEKTISKAKGQPREPQVYTLPPSREEMTKNQVSLTCLVKGFYPSDIAVEWESNGQPENNYKTTPPVLDSDGSFFLYSKLTVDKSRWQQGNVFSCSVMHEALHNHYTQKSLSLSPGK
light: DIQMTQSPSSLSASVGDRVTITCRASQDIRNDVGWYQQKPGKAPKRLIYAASRLQSGVPSRFSGSGSGTEFTLTISSLQPEDFATYYCLQHNSYPRTFGQGTKVEIKRTVAAPSVFIFPPSDEQLKSGTASVVCLLNNFYPREAKVQWKVDNALQSGNSQESVTEQDSKDSTYSLSSTLTLSKADYEKHKVYACEVTHQGLSSPVTKSFNRGEC
notes: Maia format: cysteine insertion in the IgG1 constant region; also called germlined (GL) Maia format mAb
EC50 (read off the curve) [8]: ~10 nM
EC50 (read off the curve) [9]: ~10 nM

B4: E02-GL (ZY0EQD_E02, germlined) (antibody, V domains shown)
VH: B1 VH with T21A, A23T, N58S, L70S, N98V, L104V
VL: B1 VL with G28D, L33V, R42K, V50A, S53R
notes: AF647-labelled in flow cytometry; also called EQD-E02_GL; ZY0EQD-E02-GL
EC50 (read off the curve) [10]: ~0.5 nM
